Test results reported in paper PMC8230527, “Structural and Biochemical Characterization of a Dye-Decolorizing Peroxidase from Dictyostelium discoideum” (International Journal of Molecular Sciences, 2021).

Legend:
[1] = target: Dictyostelium discoideum dye-decolorizing peroxidase DyPA (Dictyostelium discoideum); test: AUC; sedimentation velocity, 50,000 rpm, 20 °C, 50 mM Tris-HCl pH 8.0, 150 mM NaCl; 20 µM apo-DyPA with a heme saturation of only 7%
[2] = target: Dictyostelium discoideum dye-decolorizing peroxidase DyPA (Dictyostelium discoideum); test: AUC; sedimentation velocity, 50,000 rpm, 20 °C, 50 mM Tris-HCl pH 8.0, 150 mM NaCl; heme-reconstituted DyPA at 2.1, 6.3, 18.9 and 33.6 µM (monomer concentrations); dimer, no monomer-dimer equilibrium seen in this range

In the case of “Dictyostelium discoideum dye-decolorizing peroxidase DyPA (enzyme)”, the stoichiometry N [1] is reported as 2, the percent of the protein sedimenting as the dimer species [2] is reported as 90% and the stoichiometry N [2] is reported as 2.
